Laboratory results from patent publication US20170298146A1 (MODIQUEST B V, published 2017).
Non-standard residues stand in square brackets, D forms with d. No end group written: not given here. Cit = NC(=O)NCCC[C@H](N)C(=O)O

Legend:
[1] = biological target: T1, human recombinant histone H2A (human); assay: ELISA, 10 ug/well
T1 construct: Non-deiminated
Protocol: (§1) CFC-1 and CFC-0 were coated at the same concentration and served as positive and negative controls, respectively, for specific anti-citrulline reactivity and as coating controls. Non-coated wells were used to test for aspecific binding of the antibodies. […] Detection of bound anti-citrulline antibodies was performed by incubating the wells with rabbit-anti-human-HRP (1:2000) for one hour at RT followed by incubation with TMB substrate. The resulting OD (y-axis) is a measure for antibody binding. H1=recombinant histone 1; H1/p2=huPAD2 recombinant histone 1; H1/p4=huPAD4 recombinant histone 1 and so forth (x-axis).

[2] = biological target: T2, huPAD2 deiminated human recombinant histone H2A (human); assay: ELISA, 10 ug/well
T2 construct: also called H2A/p2
Protocol: as §1

[3] = biological target: T3, huPAD4 deiminated human recombinant histone H2A (human); assay: ELISA, 10 ug/well
T3 construct: also called H2A/p4; huPAD4 deiminated histone 2A
Protocol: as §1

[4] = biological target: T4, human recombinant histone H2B (human); assay: ELISA, 10 ug/well
T4 construct: Non-deiminated
Protocol: as §1

[5] = biological target: T5, huPAD2 deiminated human recombinant histone H2B (human); assay: ELISA, 10 ug/well
T5 construct: also called H2B/p2
Protocol: as §1

[6] = biological target: T6, huPAD4 deiminated human recombinant histone H2B (human); assay: ELISA, 10 ug/well
T6 construct: also called H2B/p4
Protocol: as §1

[7] = biological target: T7, huPAD2 deiminated human recombinant histone H3 (human); assay: ELISA, 10 ug/well
T7 construct: also called H3/p2
Protocol: as §1

[8] = biological target: T8, huPAD4 deiminated human recombinant histone H3 (human); assay: ELISA, 10 ug/well
T8 construct: also called H3/p4
Protocol: as §1

[9] = biological target: human recombinant histone H4 (human, UniProt P62805 2-103); assay: ELISA, 10 ug/well
Protocol: as §1

[10] = biological target: T9, CFC-1; assay: ELISA, 10 ug/well
T9 construct: Positive control for anti-citrulline reactivity; also called cfc1 XG
Protocol: as §1

[11] = biological target: T10, Histone 2A citrulline-containing peptide 1 (human, also: biotin label); assay: peptide ELISA, 0.08 ug/well
T10 construct: also called AAASGXGKQGGK
T10 peptide: AAASG[Cit]GKQGGK
Protocol: as §1, with “Biotin and citrulline-containing peptides derived from histone 2A were immobilized on NEUTRAVIDIN®-coated 96-well ELISA plates (0.3 μg/well). CFC-1” for “CFC-1”, “controls respectively” for “controls, respectively,”, “binding.” for “binding. H1=recombinant histone 1; H1/p2=huPAD2 recombinant histone 1; H1/p4=huPAD4 recombinant histone 1 and so forth (x-axis).”
(§2) Ninety-six-well ELISA plates were coated with NEUTRAVIDIN® (0.1 μg/well) by overnight incubation at 4° C. Wells were washed five times with PBS-TWEEN®-20 (PBS-T) and blocked by a one-hour incubation with PBS-T+1% Bovine serum albumin (BSA) at room temperature (RT). After five more washes with PBS-T, wells were incubated for one hour at RT with histone-derived citrulline and biotin-containing peptides (0.3 μg/well). […] Wells were washed five times with PBS-T and incubated with rabbit-anti-human-HRP (1:2000) for one hour at RT followed by five washes with PBS-T and three wash steps with PBS. Wells were incubated for five minutes with TMB substrate before stopping the reaction with 2 M H₂SO₄. Optical density was measured by 450 nm and is a measure for the affinity of the antibodies used.

[12] = biological target: T11, Histone 2A citrulline-containing peptide 3 (human, also: biotin label); assay: peptide ELISA, 0.08 ug/well
T11 peptide: KSRSS[Cit]AGLQFP
Protocol: as §1, with “Biotin and citrulline-containing peptides derived from histone 2A were immobilized on NEUTRAVIDIN®-coated 96-well ELISA plates (0.3 μg/well). CFC-1” for “CFC-1”, “controls respectively” for “controls, respectively,”, “binding.” for “binding. H1=recombinant histone 1; H1/p2=huPAD2 recombinant histone 1; H1/p4=huPAD4 recombinant histone 1 and so forth (x-axis).”
as §2

[13] = biological target: T12, Histone 2A citrulline-containing peptide 4 (human, also: biotin label); assay: peptide ELISA, 0.08 ug/well
T12 peptide: QFPVG[Cit]VHRLLR
Protocol: as §1, with “Biotin and citrulline-containing peptides derived from histone 2A were immobilized on NEUTRAVIDIN®-coated 96-well ELISA plates (0.3 μg/well). CFC-1” for “CFC-1”, “controls respectively” for “controls, respectively,”, “binding.” for “binding. H1=recombinant histone 1; H1/p2=huPAD2 recombinant histone 1; H1/p4=huPAD4 recombinant histone 1 and so forth (x-axis).”
as §2

[14] = biological target: T13, Histone 2A citrulline-containing peptide 5 (human, also: biotin label); assay: peptide ELISA, 0.08 ug/well
T13 peptide: VGRVH[Cit]LLRKGN
Protocol: as §1, with “Biotin and citrulline-containing peptides derived from histone 2A were immobilized on NEUTRAVIDIN®-coated 96-well ELISA plates (0.3 μg/well). CFC-1” for “CFC-1”, “controls respectively” for “controls, respectively,”, “binding.” for “binding. H1=recombinant histone 1; H1/p2=huPAD2 recombinant histone 1; H1/p4=huPAD4 recombinant histone 1 and so forth (x-axis).”
as §2

[15] = biological target: T14, Histone 2A citrulline-containing peptide 8 (human, also: biotin label); assay: peptide ELISA, 0.08 ug/well
T14 peptide: AGNAA[Cit]DNKKTR
Protocol: as §1, with “Biotin and citrulline-containing peptides derived from histone 2A were immobilized on NEUTRAVIDIN®-coated 96-well ELISA plates (0.3 μg/well). CFC-1” for “CFC-1”, “controls respectively” for “controls, respectively,”, “binding.” for “binding. H1=recombinant histone 1; H1/p2=huPAD2 recombinant histone 1; H1/p4=huPAD4 recombinant histone 1 and so forth (x-axis).”
as §2

[16] = biological target: T15, Histone 2A citrulline-containing peptide 12 (human, also: biotin label); assay: peptide ELISA, 0.08 ug/well
T15 peptide: NKLLG[Cit]VTIAQG
Protocol: as §1, with “Biotin and citrulline-containing peptides derived from histone 2A were immobilized on NEUTRAVIDIN®-coated 96-well ELISA plates (0.3 μg/well). CFC-1” for “CFC-1”, “controls respectively” for “controls, respectively,”, “binding.” for “binding. H1=recombinant histone 1; H1/p2=huPAD2 recombinant histone 1; H1/p4=huPAD4 recombinant histone 1 and so forth (x-axis).”
as §2

[17] = biological target: T9, CFC-1; assay: peptide ELISA, 0.0023 ug/well
Protocol: (§3) Biotin and citrulline-containing peptides derived from fibrinogen and vimentin were immobilized on NEUTRAVIDIN®-coated 96-well ELISA plates (0.3 μg/well). CFC-1 and CFC-0 were coated at the same concentration and served as positive and negative controls respectively for specific anti-citrulline reactivity and as coating controls. Non-coated wells were used to test for aspecific binding of the antibodies. […] Detection of bound anti-citrulline antibodies was performed by incubating the wells with rabbit-anti-human-HRP (1:2000) for one hour at RT followed by incubation with TMB substrate. The resulting OD (y-axis) is a measure for antibody binding.
(§4) Biotin-labeled and citrulline-containing fibrinogen and vimentin peptides (Table 5) were also tested for reactivity with the therapeutic antibodies. Peptides were coated on 96-well NEUTRAVIDIN®-ELISA plates.

[18] = biological target: T16, msFibα XH (mouse, X at position 15 is citrulline; biotin label); assay: peptide ELISA, 0.0023 ug/well
T16 peptide: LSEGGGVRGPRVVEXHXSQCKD
Protocol: as §3, §4

[19] = biological target: T17, msFibα XG (mouse, X at position 8 is citrulline; biotin label); assay: peptide ELISA, 0.0023 ug/well
T17 peptide: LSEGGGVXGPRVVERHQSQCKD
Protocol: as §3, §4

[20] = biological target: T18, huFibα XH (human, X at position 15 is citrulline; biotin label); assay: peptide ELISA, 0.0023 ug/well
T18 peptide: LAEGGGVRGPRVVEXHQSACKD
Protocol: as §3, §4

[21] = biological target: T19, huFibα XG (human, X at position 8 is citrulline; biotin label); assay: peptide ELISA, 0.0023 ug/well
T19 peptide: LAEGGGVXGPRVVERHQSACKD
Protocol: as §3, §4

[22] = biological target: T20, msFibβ XG (mouse, also: biotin label); assay: peptide ELISA, 0.0023 ug/well
T20 peptide: EPTDSLDA[Cit]GHRPVDRR
Protocol: as §3, §4

[23] = biological target: T21, msVim XS/XL (mouse, also: biotin label); assay: peptide ELISA, 0.0023 ug/well
T21 construct: also called mouse vimentin peptide
T21 peptide: YVT[Cit]SSAV[Cit]L[Cit]SSVP
Protocol: as §3, §4

B1: RhmAb2.102 (antibody, human IgG1, lambda)
heavy: not shown
light: QSVLTQPPSMSAAPGQKVTISCSGSSSNIGNNYVSWYQQVPGTAPKLLIYDDNKRPSGIPGRFSGSKSATSATLGITGLQAGDEADYYCGSWDDNLSVVLFGGGTKLTVLGQPKAAPSVTLFPPSSEELQANKATLVCLISDFYPGAVTVAWKADSSPVKAGVETTTPSKQSNNKYAASSYLSLTPEQWKSHRSYSCQVTHEGSTVEKTVAPTECS
notes: Human IgG1 lambda; also called Rhm2.102
[1]
  OD: 0.428 OD
[2]
  OD: 3.41 OD
[3]
  OD: 3.42 OD
[4]
  OD: 0.247 OD
[5]
  OD: 0.31 OD
[6]
  OD: 0.229 OD
[7]
  OD: 2.44 OD
[8]
  OD: 1.31 OD
[9]
  OD: 0.825 OD
[10]
  OD: 3.48 OD
[11]
  OD: 2.04 OD
[12]
  OD: 0.091 OD
[13]
  OD: 0.192 OD
[14]
  OD: 0.066 OD
[15]
  OD: 0.06 OD
[16]
  OD: 0.06 OD
[17]
  OD: 0.506 OD
[18]
  OD: 0.085 OD
[19]
  OD: 0.125 OD
[20]
  OD: 0.123 OD
[21]
  OD: 0.125 OD
[22]
  OD: 0.12 OD
[23]
  OD: 0.142 OD
